Reference: the supplement of paper PMC9170038

System: MS2 coat protein
Experiment: apparent KD of MS2 coat protein; designed switch direction (-1 OFF switch, 1 ON switch): -1; higher = weaker reporter binding
How it was run: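 Apparent KD, taken as the median over clusters for each design, was obtained by curve-fitting normalised cluster fluorescence. Designed RNA switches had been transcribed on Illumina chips by stalled E. coli RNA polymerase and titrated with SNAP-549-labelled MS2 coat protein, doubling from 0.7 or 1.5 nM to 3 µM.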

[1] = Eterna round: R95, input ligand: FMN 200 uM
[2] = Eterna round: R95, input ligand: microRNA oligo, concentration not stated
[3] = Eterna round: R95, input ligand: none
[4] = input ligand: microRNA oligo, concentration not stated

Sequence | apparent KD of MS2 coat protein [1] | apparent KD of MS2 coat protein [2] | apparent KD of MS2 coat protein [3] | apparent KD of MS2 coat protein (input ligand: FMN 200 uM) | apparent KD of MS2 coat protein (input ligand: none) | apparent KD of MS2 coat protein [4]
ACAAGCUUUUUGUUCGUCUUAUAAUAAUAAAUAAAGAUAACAUGAGGAUCACCCAUGUAACAAAGACGGCCUCAUGU [Sesor Array 19 - Jieux - Sensor v3, turn-off variant 2] (puzzle: Sensor v3, turn-off variant 2) | 0.166 µM | 0.0117 µM | 0.112 µM |  |  | 
ACAAGCUUUUUGUUCGUCUUAUACACUCCUAAUAAGACAACAUGAGGAUCACCCAUGUAACAAACACGAACUCAUGU [Sesor Array 7 - Jieux - Sensor v3, turn-off variant 2] (puzzle: Sensor v3, turn-off variant 2) | 0.174 µM | 0.369 µM | 0.195 µM |  |  | 
ACACAACAUGAGGAUCACCCAUGUCAGGAUAUGCAGAAGAAGAAGAAGAGAAGAGAGAGCAGAAGGGACAACAC [Ex 1 M3] (puzzle: Exclusion 1) | 0.0417 µM | 0.03 µM | 0.0335 µM |  |  | 
ACACACACAGGAUAUCUUCCGCAUGACAUGAGGAUCACCCAUGUGUGCAUGCCCAAAAGUAGAGAAGGGUGUGUGU [eternacac ex5r4 #2] (Eterna round: R97, puzzle: Exclusion 5) |  |  |  | 0.0262 µM | 0.0292 µM | 
ACACUGCGAGGAUAUACAUGAGGAUCACCCAUGUUUCGGUAGACAAGGUUAAUUUAAGGUAGAAGGCGCGUAUU [JR_Ex3_Sub009] (Eterna round: R97, puzzle: Exclusion 3) |  |  |  | 0.173 µM | 0.0402 µM | 
ACAGCGUGAGGAUAUACAUGAGGAUCACCCAUGUAUGGCAGGUUAUCCUGUCGUGAGUGUAGAAGGCACGCUGU [Exclusion 3 - Oddities v.5 ( A small slide from ms2 to fmn)] (puzzle: Exclusion 3) |  | 0.0154 µM |  |  |  | 
ACAUAUGACUAGGAUAUCACUAGCGAUAGCUAGUGAGAAGGAGUCACAUGAGGAUCACCCAUGUGCUCCAAUAA [Mod5 Ex6/6-A4 by Brourd] (Eterna round: R97, puzzle: Exclusion 6) |  |  |  | 0.0163 µM | 0.0151 µM | 
ACAUGACCGCUAGGAUAUAGAUGACAUGAGGAUCACCCAUGUUGUCCCAUGUUGACGAUCACCGACUAGAAGGAGCCACCCAUG [ExNG2 5th] (Eterna round: R96, puzzle: Exclusion NG 2) |  |  |  | 0.0534 µM | 0.0525 µM | 0.0346 µM
ACAUGAGGAUCACCCAUGUCAGGCGGGUCCUCUCCGGCUGUUGAGGAUAUAGUCCGGUAUCCGCGCUAGAAGGUGAGGGCCGGC [Aenatbe mod 18] (Eterna round: R96, puzzle: Exclusion NG 3) |  |  |  | 0.0181 µM | 0.0202 µM | 0.0164 µM
ACAUGAGGAUCACCCAUGUCAGGCGGGUCCUCUCCGGCUGUUGAGGAUAUAGUUCGGUAUCCGCGCUAGAAGGUGAGGGCCGGC [Aenatbe mod 21] (Eterna round: R96, puzzle: Exclusion NG 3) |  |  |  | 0.0151 µM | 0.0171 µM | 0.00999 µM
ACAUGAGGAUCACCCAUGUCCGGCUGGUCCGUCUCGGCUGUCGAGGAUAUAGCUCGGUGUCCGCGCUAGAAGGCGGGAGCCGGC [Aenatbe mod 83] (Eterna round: R96, puzzle: Exclusion NG 3) |  |  |  | 0.0915 µM | 0.0734 µM | 0.0647 µM
ACAUGAGGAUCACCCAUGUCCGGCUGGUCCGUUUCGGCUGUCGAGGAUAUAGUUCGGUGUCCGCGCUAGAAGGCGGGAGCCGGC [Aenatbe mod 62] (Eterna round: R96, puzzle: Exclusion NG 3) |  |  |  | 0.21 µM | 0.112 µM | 0.0809 µM
ACAUGAGGAUCACCCAUGUCCGGCUGGUCUGUCUCGGCUGUCGAGGAUAUAGCUCGGUAUCCGCGCUAGAAGGCGGGAGCCGGU [Aenatbe mod 91] (Eterna round: R96, puzzle: Exclusion NG 3) |  |  |  | 0.0767 µM | 0.0488 µM | 0.0294 µM
ACAUGAGGAUCACCCAUGUCUGGCUGGUCUGCUCCGGUUGUUGAGGAUAUAGUCCGGUGUUCGCGCUAGAAGGUGAGGGCUGGA [Aenatbe mod 40] (Eterna round: R96, puzzle: Exclusion NG 3) |  |  |  | 0.137 µM | 0.131 µM | 0.0964 µM
ACAUGAGGAUCACCCAUGUCUGGCUGGUCUGUUCCGGCUGUCGAGGAUAUAGUCCGGUGUUCGCGCUAGAAGGUGAGGGCUGGA [Aenatbe mod 44] (Eterna round: R96, puzzle: Exclusion NG 3) |  |  |  | 0.153 µM | 0.0874 µM | 0.0686 µM
ACAUGAGGAUCACCCAUGUGAAACCAAUGGCUGACUUUGAGCUAGGAUAUUUGUGCAUAUCAAACAAAGAAGGAGCAUUACUGG [Deportation 98 - Jieux - Exclusion NG 3] (Eterna round: R96, puzzle: Exclusion NG 3) |  |  |  |  |  | 0.0302 µM
ACAUGAGGAUCACCCAUGUGACAAUAAUGGCUGAUACAGAGACAGGAUAUAGGUGAAUAUCUAACCUAGAAGGGUCAUGACUGG [Deportation 71 - Jieux - Exclusion NG 3] (Eterna round: R96, puzzle: Exclusion NG 3) |  |  |  | 0.0348 µM | 0.054 µM | 0.033 µM
ACAUGAGGAUCACCCAUGUGCACGUAAUGGCUCAUGUAGAGUGAGGAUAUGCGUGACGAACGAGCGCAGAAGGCACAAGACUGG [Deportation 16 - Jieux - Exclusion NG 3] (Eterna round: R96, puzzle: Exclusion NG 3) |  |  |  | 0.131 µM | 0.0775 µM | 0.0578 µM
ACAUGAGGAUCACCCAUGUUCGGCUGGUCCGUUUCGGCUGUCGAGGAUAUAGUUCGGUGUCCGCGCUAGAAGGCGGGAGCCGGC [Aenatbe mod 63] (Eterna round: R96, puzzle: Exclusion NG 3) |  |  |  | 0.153 µM | 0.0785 µM | 0.0545 µM
ACAUGUAAUGCAGGAUAUCGGACACAUGAGGAUCACCCAUGUGACCAGAGGUAUUGCUAAGAGUCUGAGAAGGGUAUGUACAUG [Ex NG2 #50] (Eterna round: R96, puzzle: Exclusion NG 2) |  |  |  | 0.02 µM | 0.0191 µM | 0.0175 µM
ACAUGUAAUGCAGGAUAUUUUACACAUGAGGAUCACCCAUGUGACCAGAGGAAUUGCUAUGAGUAGAAGAAGGGUAUGUACAUG [Ex NG2 #56] (Eterna round: R96, puzzle: Exclusion NG 2) |  |  |  | 0.0788 µM | 0.0644 µM | 0.0567 µM
ACAUGUAUUGCAGGAUAUGGGACACAUGAGGAUCACCCAUGUGACUACAUGUCAUACCAAGCGUCUCAGAAGGGUAUGUACAUG [Ex NG2 #38] (Eterna round: R96, puzzle: Exclusion NG 2) |  |  |  | 0.0213 µM | 0.0185 µM | 0.0158 µM
ACAUGUGUUGUAGGAUAUAGGAGACAUGAGGAUCACCCAUGUUGAUUCAUGUCUAUGGAAACGUCCUAGAAGGACGACAAUAUG [Ex NG2 #19] (Eterna round: R96, puzzle: Exclusion NG 2) |  |  |  | 0.283 µM | 0.272 µM | 0.179 µM
ACAUGUUAUGUAGGAUAUUGGACACAUGAGGAUCACCCAUGUACCCGGAGGCUUUACUAUGAGUUCGAGAAGGGUAUGUACAUG [Ex NG2 #69] (Eterna round: R96, puzzle: Exclusion NG 2) |  |  |  | 0.0353 µM | 0.0471 µM | 0.0337 µM
ACCUUACAUGAGGAUCACCCAUGUCAGGAUAUCUCGGACAGCUGAAAACCAGCCGUCCAGAGAAGGGACGAGGA [Tiaza] (puzzle: Exclusion 1) |  | 0.0128 µM |  |  |  | 
ACCUUACAUGAGGAUCACCCAUGUCAGGAUAUCUCGGGCGGCCAAGGGCCGGCCGCCCAGAGAAGGGACGAGGA [Inusla] (puzzle: Exclusion 1) |  | 0.0121 µM |  |  |  | 
ACGAAACAUGAGGAUCACCCAUGUGAGGAUAUGUAAAUACUAGACAAAUAACAGAAAAACAGAAGGCACUCAGA [JR_Exclusion1_Sub003] (puzzle: Exclusion 1) |  | 0.022 µM |  |  |  | 
ACGAGGAUUACAGGAUAUGAAGCUAAAACGGCGUUAGAAGGGUAUACAGAGUUACAUGAGGAUCACCCAUGUUGUGAUUUCGAA [AK ExNG1-V2-4.1] (Eterna round: R96, puzzle: Exclusion NG 1) |  |  |  | 0.158 µM | 0.134 µM | 0.115 µM
